Residue numbers refer to the chain shown, from its start. One block for each molecule: values may come before it.
Assays:
[1] = target: T1, P450sca-2 (CYP105A3) (Streptomyces carbophilus, UniProt Q59831); assay: HPLC/HRMS of products, reconstituted system; type: biochemical; settings: SelFdx1499/SelFdR0978 as redox partners (1:10:5), NADP+ with regeneration, pH 7.4, 30 °C, 2 h
T1 construct: His-tagged, expressed in E. coli, Ni-NTA purified
T1 sequence (Q59831 2-410): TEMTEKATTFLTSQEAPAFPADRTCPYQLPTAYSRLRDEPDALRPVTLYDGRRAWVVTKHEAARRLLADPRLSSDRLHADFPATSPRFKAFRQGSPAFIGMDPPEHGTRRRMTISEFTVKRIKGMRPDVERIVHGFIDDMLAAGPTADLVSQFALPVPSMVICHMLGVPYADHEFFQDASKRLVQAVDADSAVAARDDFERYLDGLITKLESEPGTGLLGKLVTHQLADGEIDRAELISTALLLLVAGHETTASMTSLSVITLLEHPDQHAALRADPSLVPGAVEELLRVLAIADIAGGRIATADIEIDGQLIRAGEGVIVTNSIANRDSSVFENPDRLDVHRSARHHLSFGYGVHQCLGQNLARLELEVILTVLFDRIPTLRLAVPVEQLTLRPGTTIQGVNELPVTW

[2] = target: T2, PdR (putidaredoxin reductase) (Pseudomonas putida, UniProt P16640); assay: DCIP reduction, absorbance at […] nm; type: biochemical; settings: 30 °C
T2 construct: gene camA; His-tagged, expressed in E. coli, Ni-NTA purified
T2 sequence (P16640 1-422): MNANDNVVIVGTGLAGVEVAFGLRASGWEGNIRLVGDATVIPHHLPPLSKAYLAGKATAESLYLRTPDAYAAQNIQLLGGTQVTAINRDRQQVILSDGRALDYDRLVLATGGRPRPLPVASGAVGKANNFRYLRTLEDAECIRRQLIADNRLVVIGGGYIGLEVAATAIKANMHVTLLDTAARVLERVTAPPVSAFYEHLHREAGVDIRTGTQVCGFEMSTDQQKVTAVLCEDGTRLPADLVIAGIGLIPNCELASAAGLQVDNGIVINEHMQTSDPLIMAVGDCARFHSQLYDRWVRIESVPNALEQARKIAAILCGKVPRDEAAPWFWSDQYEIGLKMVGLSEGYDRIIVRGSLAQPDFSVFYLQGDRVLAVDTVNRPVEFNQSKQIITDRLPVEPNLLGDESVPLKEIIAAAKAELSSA

[3] = target: T3, AdR (adrenodoxin reductase) (Bos taurus, UniProt P08165); assay: DCIP reduction, absorbance at […] nm; type: biochemical; settings: 30 °C
T3 construct: gene FDXR; C-terminal His-tag, expressed in E. coli; template plasmid pBAR-bAdR
T3 sequence (P08165 33-492): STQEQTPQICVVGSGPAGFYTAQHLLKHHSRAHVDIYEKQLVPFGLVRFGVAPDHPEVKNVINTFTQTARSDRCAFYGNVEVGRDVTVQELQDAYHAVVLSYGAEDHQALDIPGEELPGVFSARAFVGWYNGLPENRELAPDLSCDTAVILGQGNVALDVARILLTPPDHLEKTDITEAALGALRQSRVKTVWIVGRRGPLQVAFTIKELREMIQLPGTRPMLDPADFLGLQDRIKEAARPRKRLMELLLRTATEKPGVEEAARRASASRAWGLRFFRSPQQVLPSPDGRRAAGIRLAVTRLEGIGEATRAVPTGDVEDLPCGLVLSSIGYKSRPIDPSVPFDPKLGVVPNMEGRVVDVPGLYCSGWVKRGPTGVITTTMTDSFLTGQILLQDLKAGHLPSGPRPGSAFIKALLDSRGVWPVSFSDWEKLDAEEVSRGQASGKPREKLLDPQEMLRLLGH

[4] = target: T4, SelFdR0978 (Synechococcus elongatus, UniProt Q31PL1); assay: DCIP reduction, absorbance at […] nm; type: biochemical; settings: 30 °C
T4 construct: gene Synpcc7942_0978

[5] = target: T4, SelFdR0978; assay: FAD released by guanidinium chloride, absorbance at […] nm; type: binding; settings: FAD-bound flavoprotein as purified
[6] = target: T5, EpoK (CYP167A1) (Sorangium cellulosum, UniProt Q9KIZ4); assay: conversion assay, reconstituted system; type: biochemical; settings: SelFdx1499/SelFdR0978 as redox partners
T5 construct: His-tagged, expressed in E. coli (general P450 statement)

[7] = target: T6, Bovine adrenodoxin reductase (bovine) (UniProt P08165)
T6 sequence: T3 sequence (P08165 33-492)

[8] = target: T6, Bovine adrenodoxin reductase (bovine); remark: listed apart in the source
[9] = target: plastidic-type ferredoxin reductase SelFdR0978 from Synechococcus elongatus PCC 7942 (Synechococcus elongatus PCC 7942)
[10] = target: T7, putidaredoxin reductase from Pseudomonas putida (Pseudomonas putida) (UniProt P16640)
T7 sequence: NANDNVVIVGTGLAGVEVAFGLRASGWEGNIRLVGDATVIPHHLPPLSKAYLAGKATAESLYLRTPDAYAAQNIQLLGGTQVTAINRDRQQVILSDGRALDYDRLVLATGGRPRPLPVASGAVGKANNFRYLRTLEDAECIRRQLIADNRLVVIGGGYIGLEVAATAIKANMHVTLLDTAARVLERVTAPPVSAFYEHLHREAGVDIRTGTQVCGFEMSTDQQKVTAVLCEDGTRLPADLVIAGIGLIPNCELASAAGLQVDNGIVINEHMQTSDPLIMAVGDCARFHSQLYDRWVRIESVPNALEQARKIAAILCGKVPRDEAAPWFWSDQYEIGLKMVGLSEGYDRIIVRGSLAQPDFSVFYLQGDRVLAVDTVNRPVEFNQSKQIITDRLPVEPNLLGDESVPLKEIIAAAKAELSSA

[11] = target: plastidic-type ferredoxin reductase SelFdR0978 from Synechococcus elongatus PCC 7942 (Synechococcus elongatus PCC 7942); remark: listed apart in the source
[12] = target: T7, putidaredoxin reductase from Pseudomonas putida (Pseudomonas putida); remark: listed apart in the source
[13] = electron acceptor, 1 mM NADPH or NADH
[14] = electron donor at 1 mM, DCIP as acceptor

T4 sequence (Q31PL1 1-403): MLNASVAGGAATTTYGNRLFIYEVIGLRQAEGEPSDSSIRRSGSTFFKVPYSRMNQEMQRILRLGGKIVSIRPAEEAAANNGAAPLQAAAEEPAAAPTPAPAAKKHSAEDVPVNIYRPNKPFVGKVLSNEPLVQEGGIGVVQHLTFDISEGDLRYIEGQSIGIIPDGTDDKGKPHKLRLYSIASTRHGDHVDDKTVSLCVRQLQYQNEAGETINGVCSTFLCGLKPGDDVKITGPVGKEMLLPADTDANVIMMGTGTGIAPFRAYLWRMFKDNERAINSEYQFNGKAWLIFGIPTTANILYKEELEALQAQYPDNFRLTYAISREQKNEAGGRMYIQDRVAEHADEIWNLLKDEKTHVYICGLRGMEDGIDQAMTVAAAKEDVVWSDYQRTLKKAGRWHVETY
T5 sequence (Q9KIZ4 whole entry): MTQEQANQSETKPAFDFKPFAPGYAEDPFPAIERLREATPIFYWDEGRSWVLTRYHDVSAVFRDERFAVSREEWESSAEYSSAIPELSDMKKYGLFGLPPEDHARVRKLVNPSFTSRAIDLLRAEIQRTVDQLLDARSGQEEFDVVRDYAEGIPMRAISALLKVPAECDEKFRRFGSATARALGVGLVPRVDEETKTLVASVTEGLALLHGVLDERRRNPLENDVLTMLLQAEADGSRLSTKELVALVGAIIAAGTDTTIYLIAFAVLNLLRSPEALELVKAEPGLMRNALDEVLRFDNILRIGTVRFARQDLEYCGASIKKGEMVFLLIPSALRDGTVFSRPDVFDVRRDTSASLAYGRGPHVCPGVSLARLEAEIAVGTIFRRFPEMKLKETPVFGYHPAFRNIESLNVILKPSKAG

Molecule: CC[C@H](C)C(=O)O[C@H]1CCC=C2C=C[C@H](C)[C@H](CC[C@@H](O)C[C@@H](O)CC(=O)O)[C@H]21
HPLC/HRMS of products, reconstituted system [1]: P450sca-2 produced pravastatin as the main product in all positive reactions

Molecule: O=C1C(Cl)=CC(=Nc2ccc(O)cc2)C=C1Cl [DCIP]
DCIP reduction, absorbance at 600 nm [2, 13]: SelFdR0978 was more efficient in DCIP reduction than both AdR and PdR
DCIP reduction, absorbance at 600 nm [3, 13]: SelFdR0978 was more efficient in DCIP reduction than both AdR and PdR
DCIP reduction, absorbance at 600 nm [4, 13]: SelFdR0978 was more efficient in DCIP reduction than both AdR and PdR

Molecule: Cc1cc2nc3c(=O)[nH]c(=O)nc-3n(C[C@H](O)[C@H](O)[C@H](O)COP(=O)(O)OP(=O)(O)OC[C@H]3O[C@@H](n4cnc5c(N)ncnc54)[C@H](O)[C@@H]3O)c2cc1C [FAD]
FAD released by guanidinium chloride, absorbance at 450 nm [5]: extinction coefficients of the flavin-bound SelFdR0978

Molecule: NC(=O)C1=CN([C@@H]2O[C@H](COP(=O)(O)OP(=O)(O)OC[C@H]3O[C@@H](n4cnc5c(N)ncnc54)[C@H](O)[C@@H]3O)[C@@H](O)[C@H]2O)C=CC1 [NADH]
DCIP reduction, absorbance at 600 nm [2, 14]: PdR preferred NADH to NADPH

Molecule: NC(=O)C1=CN([C@@H]2O[C@H](COP(=O)(O)OP(=O)(O)OC[C@H]3O[C@@H](n4cnc5c(N)ncnc54)[C@H](OP(=O)(O)O)[C@@H]3O)[C@@H](O)[C@H]2O)C=CC1 [NADPH]
DCIP reduction, absorbance at 600 nm [3, 14]: AdR only exhibited a slightly increased activity with NADPH than with NADH
DCIP reduction, absorbance at 600 nm [4, 14]: SelFdR0978 showed a strong preference for NADPH over NADH

Molecule: C/C1=C/C[C@@H](/C(C)=C/c2csc(C)n2)OC(=O)C[C@H](O)C(C)(C)C(=O)[C@H](C)[C@@H](O)[C@@H](C)CCC1 [epothilone D]
conversion assay, reconstituted system [6]: EpoK catalyzes the epoxidation of C12-C13 double bond in epothilone D to form epothilone B

B1: Adx-M1 (domain or fragment)
chain: EDKITVHFINRDGETLTTKGKIGDALLDVVVQNNLDIDGFGACEGTLACSTCHLIFEQHIFEKLEAIADEEAAMLALAYGLTDRSRLGCQICLTKAMDNMTVRVP
conversion rate of YC-17 by PikC (1 uM P450, 10 uM Fdx, 5 uM FdR) [9]: 9.2%

Second part, the molecule after the results:

Km for the redoxin in cyt c reduction (NAD(P)H, 1 nM FdR, 0-40 uM Fdx, 30 uM cyt c) [7]: 14.6 µM
conversion rate of YC-17 by PikC (1 uM P450, 10 uM Fdx, 5 uM FdR), wild-type reference [8]: 63.8%
conversion rate of YC-17 by PikC (1 uM P450, 10 uM Fdx, 5 uM FdR), wild-type reference [9]: 15.6%
conversion rate of YC-17 by PikC (1 uM P450, 10 uM Fdx, 5 uM FdR), wild-type reference [10]: 16.5%
Molecule: Bovine adrenodoxin Adx(4-108) (domain or fragment)

Km for the redoxin in cyt c reduction (NAD(P)H, 1 nM FdR, 0-40 uM Fdx, 30 uM cyt c) [11]: 14.2 µM
conversion rate of YC-17 by PikC (1 uM P450, 10 uM Fdx, 5 uM FdR), wild-type reference [8]: 30.1%
conversion rate of YC-17 by PikC (1 uM P450, 10 uM Fdx, 5 uM FdR), wild-type reference [9]: 99.1%
conversion rate of YC-17 by PikC (1 uM P450, 10 uM Fdx, 5 uM FdR), wild-type reference [10]: 24.7%
Molecule: Fe2S2 ferredoxin SelFdx1499 from Synechococcus elongatus PCC 7942 (natural protein)

conversion rate of YC-17 by PikC (1 uM P450, 10 uM Fdx, 5 uM FdR) [10]: 7.2%
B2: Adx-M3 (domain or fragment)
chain: B1 chain with A25S, D38A, G39A, A42L, A68T, A72N, A73D, A76D

conversion rate of YC-17 by PikC (1 uM P450, 10 uM Fdx, 5 uM FdR) [8]: 67.8%
B3: Adx-M2 (domain or fragment)
chain: B1 chain with A25S, D38A, E44A, L47A, A68T, A72N, A73D

Km for the redoxin in cyt c reduction (NAD(P)H, 1 nM FdR, 0-40 uM Fdx, 30 uM cyt c) [12]: 22.1 µM
conversion rate of YC-17 by PikC (1 uM P450, 10 uM Fdx, 5 uM FdR), wild-type reference [8]: 0%
conversion rate of YC-17 by PikC (1 uM P450, 10 uM Fdx, 5 uM FdR), wild-type reference [9]: 0%
conversion rate of YC-17 by PikC (1 uM P450, 10 uM Fdx, 5 uM FdR), wild-type reference [10]: 15.6%
B4: putidaredoxin from Pseudomonas putida (natural protein)
chain: SKVVYVSHDGTRRELDVADGVSLMQAAVSNGIYDIVGDCGGSASCATCHVYVNEAFTDKVPAANEREIGMLECVTAELKPNSRLCCQIIMTPELDGIVVDVPDRQW
